The experiment has as its target mouse PD-L1 (surface receptor on LLC-JSP and 4T1 murine cancer cells) (mouse) (UniProt Q9EP73). Description: flow cytometry uptake of dye-siRNA tagged p-iPLK1-NP by 4T1 cells, 1 h exposure (FIG. 11B).

The values that follow come from patent US20260124210A1.

mouse PD-L1 (surface receptor on LLC-JSP and 4T1 murine cancer cells) (mouse), sequence (Q9EP73 19-290): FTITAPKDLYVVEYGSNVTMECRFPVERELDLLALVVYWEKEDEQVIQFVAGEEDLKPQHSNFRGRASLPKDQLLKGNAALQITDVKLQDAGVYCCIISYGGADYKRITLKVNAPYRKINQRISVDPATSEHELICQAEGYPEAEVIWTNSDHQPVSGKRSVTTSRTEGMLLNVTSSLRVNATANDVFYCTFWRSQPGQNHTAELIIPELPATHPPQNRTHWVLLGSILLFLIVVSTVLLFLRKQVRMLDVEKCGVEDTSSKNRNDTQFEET

In the case of “p-iPLK1-NP (mesoporous silica nanoparticle coated with PEI and PEG, loaded with PLK1 inhibitor volasertib and conjugated with mouse PD-L1 antibody)”, the cellular uptake, PD-L1 high cells vs. PD-L1 low cells (fold) amounted to 4 fold.
